How the values were obtained:
human RAD51 = target: T1, human RAD51 (Homo sapiens, UniProt Q06609, V273P/D274G); assay: cryo-EM structure of filament; conditions: 2 mM AMP-PNP, 5 mM CaCl2, pH 7.5, 37 °C; homologous dsDNA filament; ATP-binding site
T1 construct: untagged as described, human cDNA in pET11, E. coli BLR pRARE host; helical filament on dsDNA
T1 sequence (Q06609 2-339 V273P/D274G): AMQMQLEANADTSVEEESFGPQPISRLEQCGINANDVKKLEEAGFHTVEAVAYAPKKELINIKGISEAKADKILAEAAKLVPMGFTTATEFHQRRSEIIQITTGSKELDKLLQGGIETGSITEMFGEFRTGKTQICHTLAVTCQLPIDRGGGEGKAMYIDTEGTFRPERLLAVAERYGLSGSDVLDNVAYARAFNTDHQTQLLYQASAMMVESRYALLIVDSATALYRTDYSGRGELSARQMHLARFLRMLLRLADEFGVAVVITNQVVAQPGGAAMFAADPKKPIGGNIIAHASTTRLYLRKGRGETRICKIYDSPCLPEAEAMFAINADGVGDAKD

DMC1-PvGd = target: T2, DMC1-PvGd (Homo sapiens, UniProt Q14565 1-340, P274V;G275D); assay: EMSA; 2 mM ATP, 10 mM Mg2+; EMSA: 35 mM Tris-HCl pH 7.5, 1 mM DTT, 10 mM MgCl2, 100 ng/ul BSA, 50 mM KCl, 2 mM ATP, 37 °C 10 min; DNA 3 uM nucleotides or base pairs; conditions: protein: recombinant, tags: His6
T2 sequence: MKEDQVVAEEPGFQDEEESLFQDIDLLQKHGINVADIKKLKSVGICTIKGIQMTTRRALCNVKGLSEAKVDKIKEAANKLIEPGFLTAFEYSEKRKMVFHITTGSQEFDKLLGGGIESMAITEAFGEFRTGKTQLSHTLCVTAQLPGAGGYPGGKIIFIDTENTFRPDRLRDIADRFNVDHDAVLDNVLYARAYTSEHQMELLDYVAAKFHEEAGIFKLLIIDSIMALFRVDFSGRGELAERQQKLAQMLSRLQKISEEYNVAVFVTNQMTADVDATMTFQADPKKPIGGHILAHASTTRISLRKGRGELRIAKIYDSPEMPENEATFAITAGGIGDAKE

DMC1-QmPvGd = target: T3, DMC1-QmPvGd (Homo sapiens, UniProt Q14565 1-340, Q244M;P274V;G275D); assay: as above; conditions: protein: recombinant, tags: His6
T3 sequence: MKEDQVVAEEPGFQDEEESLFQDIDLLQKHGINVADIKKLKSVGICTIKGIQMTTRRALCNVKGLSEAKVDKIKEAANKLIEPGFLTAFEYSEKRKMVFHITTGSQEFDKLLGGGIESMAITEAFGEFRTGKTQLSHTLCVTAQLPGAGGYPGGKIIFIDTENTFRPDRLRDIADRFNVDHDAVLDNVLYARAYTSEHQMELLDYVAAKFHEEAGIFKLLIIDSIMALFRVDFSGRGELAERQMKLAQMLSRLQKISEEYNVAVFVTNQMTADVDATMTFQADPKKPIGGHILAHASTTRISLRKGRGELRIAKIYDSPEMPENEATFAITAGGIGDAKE

DMC1 WT [1] = target: T4, DMC1 WT (Homo sapiens, UniProt Q14565 1-340); assay: cryo-EM structure; AMP-PNP; EMSA: 35 mM Tris-HCl pH 7.5, 1 mM DTT, 10 mM MgCl2, 100 ng/ul BSA, 50 mM KCl, 2 mM ATP, 37 °C 10 min; DNA 3 uM nucleotides or base pairs; conditions: protein: recombinant; tags: His6; single strand
T4 sequence: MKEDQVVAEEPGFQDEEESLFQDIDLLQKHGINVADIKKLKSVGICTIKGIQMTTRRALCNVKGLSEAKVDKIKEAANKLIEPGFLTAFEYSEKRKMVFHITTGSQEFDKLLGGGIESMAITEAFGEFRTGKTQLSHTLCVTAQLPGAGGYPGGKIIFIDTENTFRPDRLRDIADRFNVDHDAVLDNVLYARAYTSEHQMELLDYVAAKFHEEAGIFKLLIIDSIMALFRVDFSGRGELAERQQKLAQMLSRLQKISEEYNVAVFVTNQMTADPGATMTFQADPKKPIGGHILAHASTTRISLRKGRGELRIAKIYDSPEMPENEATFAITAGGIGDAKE

[2] = target: the molecule itself; assay: cryo-EM structure; helical filaments: 4 uM DMC1 (or RAD51) protein with 24 uM nucleotides of ssDNA (presynaptic) or dsDNA (postsynaptic) in 35 mM Tris-HCl pH 7.5, 108 mM KCl, 1 mM DTT, 2 mM AMP-PNP, 5 mM CaCl2, 37 °C, 30 min; helical reconstruction; protomer to protomer within a nucleoprotein filament
DMC1-Q244M (Qm) = target: T5, DMC1-Q244M (Qm) (Homo sapiens, UniProt Q14565 1-340, Q244M); assay: cryo-EM structure; DNA too flexible to be observed; EMSA: 35 mM Tris-HCl pH 7.5, 1 mM DTT, 10 mM MgCl2, 100 ng/ul BSA, 50 mM KCl, 2 mM ATP, 37 °C 10 min; DNA 3 uM nucleotides or base pairs; conditions: protein: recombinant; tags: His6; blunt
T5 sequence: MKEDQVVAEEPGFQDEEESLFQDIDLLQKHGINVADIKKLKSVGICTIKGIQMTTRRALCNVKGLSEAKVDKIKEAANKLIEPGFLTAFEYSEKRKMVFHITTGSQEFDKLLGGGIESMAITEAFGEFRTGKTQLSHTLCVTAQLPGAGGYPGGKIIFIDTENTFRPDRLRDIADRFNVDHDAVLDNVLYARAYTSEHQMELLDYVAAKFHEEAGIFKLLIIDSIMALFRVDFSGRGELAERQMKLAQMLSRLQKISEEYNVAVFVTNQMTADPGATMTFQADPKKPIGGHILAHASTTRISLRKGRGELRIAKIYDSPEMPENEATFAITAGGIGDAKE

DMC1 WT [3] = target: T4, DMC1 WT; assay: cryo-EM structure; EMSA: 35 mM Tris-HCl pH 7.5, 1 mM DTT, 10 mM MgCl2, 100 ng/ul BSA, 50 mM KCl, 2 mM ATP, 37 °C 10 min; DNA 3 uM nucleotides or base pairs; conditions: protein: recombinant, tags: His6, blunt
[4] = label: 5'-32P (EMSA), single strand
[5] = label: 5'-32P on Oligo 1, blunt

In the case of `Nc1ncnc2c1ncn2[C@@H]1O[C@H](COP(=O)(O)OP(=O)(O)NP(=O)(O)O)[C@@H](O)[C@H]1O` [AMP-PNP], the “cryo-EM structure of filament” value (human RAD51) is reported as “solved the structure of the dsDNA filaments of the double mutant RAD51-VpDg”.

B1: Oligo 1 80-mer ssDNA (ssDNA)
DNA: TTATGTTCATTTTTTATATCCTTTACTTTATTTTCTCTGTTTATTCATTTACTTATTTTGTATTATCCTTATCTTATTTA
B1 was tested, and the binding signal (DMC1-PvGd; [4]) was ~60 % of WT binding (approx. 40% lost) and the binding signal (DMC1-QmPvGd; [4]) was ~40 % of WT binding (approx. 60% lost).

B2: Oligo 1 80-mer ssDNA, unlabeled (ssDNA)
DNA: TTATGTTCATTTTTTATATCCTTTACTTTATTTTCTCTGTTTATTCATTTACTTATTTTGTATTATCCTTATCTTATTTA
B2: binds (DMC1 WT [1]).

B3: Oligo 1/Oligo 2 80 bp dsDNA (dsDNA)
DNA 1: TTATGTTCATTTTTTATATCCTTTACTTTATTTTCTCTGTTTATTCATTTACTTATTTTGTATTATCCTTATCTTATTTA
DNA 2: TAAATAAGATAAGGATAATACAAAATAAGTAAATGAATAAACAGAGAAAATAAAGTAAAGGATATAAAAAATGAACATAA
With B3 the binding signal (DMC1-PvGd; [5]) was ~60 % of WT binding (approx. 40% lost) and the binding signal (DMC1-QmPvGd; [5]) was ~40 % of WT binding (approx. 60% lost).

B4: human RAD51-V273P/D274G (natural protein)
chain: MAMQMQLEANADTSVEEESFGPQPISRLEQCGINANDVKKLEEAGFHTVEAVAYAPKKELINIKGISEAKADKILAEAAKLVPMGFTTATEFHQRRSEIIQITTGSKELDKLLQGGIETGSITEMFGEFRTGKTQICHTLAVTCQLPIDRGGGEGKAMYIDTEGTFRPERLLAVAERYGLSGSDVLDNVAYARAFNTDHQTQLLYQASAMMVESRYALLIVDSATALYRTDYSGRGELSARQMHLARFLRMLLRLADEFGVAVVITNQVVAQPGGAAMFAADPKKPIGGNIIAHASTTRLYLRKGRGETRICKIYDSPCLPEAEAMFAINADGVGDAKD
notes: RAD51, human; site-directed mutant of the RAD51 cDNA in vector pET11; Protomer of a helical filament assembled on dsDNA with AMP-PNP and Ca2+; also called RAD51-VpDg; RAD51-V273P, D274G mutant
B4: binds [2].

B5: human DMC1 (wild type) (natural protein)
chain: MKEDQVVAEEPGFQDEEESLFQDIDLLQKHGINVADIKKLKSVGICTIKGIQMTTRRALCNVKGLSEAKVDKIKEAANKLIEPGFLTAFEYSEKRKMVFHITTGSQEFDKLLGGGIESMAITEAFGEFRTGKTQLSHTLCVTAQLPGAGGYPGGKIIFIDTENTFRPDRLRDIADRFNVDHDAVLDNVLYARAYTSEHQMELLDYVAAKFHEEAGIFKLLIIDSIMALFRVDFSGRGELAERQQKLAQMLSRLQKISEEYNVAVFVTNQMTADPGATMTFQADPKKPIGGHILAHASTTRISLRKGRGELRIAKIYDSPEMPENEATFAITAGGIGDAKE
notes: DMC1, human; cDNA in vector pRSFDuet; Protomer of a helical filament assembled on ssDNA or dsDNA with AMP-PNP and Ca2+; also called DMC1-WT; WT DMC1; source: E. coli RecA-deficient BLR strain with pRARE, purified (TALON, Source Q, macrohydroxyapatite, Mono Q)
B5: binds [2].

B6: human DMC1-Q244M (natural protein)
chain: MKEDQVVAEEPGFQDEEESLFQDIDLLQKHGINVADIKKLKSVGICTIKGIQMTTRRALCNVKGLSEAKVDKIKEAANKLIEPGFLTAFEYSEKRKMVFHITTGSQEFDKLLGGGIESMAITEAFGEFRTGKTQLSHTLCVTAQLPGAGGYPGGKIIFIDTENTFRPDRLRDIADRFNVDHDAVLDNVLYARAYTSEHQMELLDYVAAKFHEEAGIFKLLIIDSIMALFRVDFSGRGELAERQMKLAQMLSRLQKISEEYNVAVFVTNQMTADPGATMTFQADPKKPIGGHILAHASTTRISLRKGRGELRIAKIYDSPEMPENEATFAITAGGIGDAKE
notes: DMC1, human; site-directed mutant of the DMC1 cDNA in pRSFDuet; Protomer of a helical filament assembled with homologous dsDNA, AMP-PNP and Ca2+; the DNA density was not observable in the map; also called DMC1-Qm; source: E. coli BLR pRARE, purified as described for the WT protein
B6: binds [2].

B7: Oligo 3/Oligo 4 15 bp homologous dsDNA (dsDNA)
DNA 1: ACGGGCAACAGCTGA
DNA 2: TCAGCTGTTGCCCGT
B7: binds (DMC1-Q244M (Qm)); binds (DMC1 WT [3]).

B8: Oligo 3/Oligo 5 15 bp mismatched dsDNA (dsDNA)
DNA 1: ACGGGCAACAGCTGA
DNA 2: TCAGCTGTCGCCCGT
B8: binds (DMC1 WT [3]; one A-C mismatch).

— paper PMC7809202, “Identification of fidelity-governing factors in human recombinases DMC1 and RAD51 from cryo-EM structures” (Nature Communications, 2021)
